IntAct's records for PubMed 16762039

Target: hic1_human HIC1 (UniProt Q14526)
Sequence (Q14526 whole entry): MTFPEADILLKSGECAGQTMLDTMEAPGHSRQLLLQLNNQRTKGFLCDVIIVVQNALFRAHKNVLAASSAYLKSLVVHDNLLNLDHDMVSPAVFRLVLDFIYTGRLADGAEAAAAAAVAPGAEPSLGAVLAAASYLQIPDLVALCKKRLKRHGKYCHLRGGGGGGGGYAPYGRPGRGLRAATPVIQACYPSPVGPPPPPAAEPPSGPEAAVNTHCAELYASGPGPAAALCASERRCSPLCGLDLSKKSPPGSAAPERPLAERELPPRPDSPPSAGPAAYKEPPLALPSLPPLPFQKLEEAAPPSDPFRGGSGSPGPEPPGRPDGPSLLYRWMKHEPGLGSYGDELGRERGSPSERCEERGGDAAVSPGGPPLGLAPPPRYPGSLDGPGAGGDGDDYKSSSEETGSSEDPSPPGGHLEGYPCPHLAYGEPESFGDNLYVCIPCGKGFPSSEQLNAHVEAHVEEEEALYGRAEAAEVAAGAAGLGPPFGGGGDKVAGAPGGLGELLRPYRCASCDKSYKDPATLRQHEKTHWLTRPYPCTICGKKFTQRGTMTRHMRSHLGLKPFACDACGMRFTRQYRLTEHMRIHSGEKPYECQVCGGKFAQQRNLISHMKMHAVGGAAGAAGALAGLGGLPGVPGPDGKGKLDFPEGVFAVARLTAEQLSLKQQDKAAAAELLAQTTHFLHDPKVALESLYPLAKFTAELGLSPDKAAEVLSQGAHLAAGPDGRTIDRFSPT

Sequence of C-terminal-binding protein 2 (Mus musculus), P56546 A58E (P56546 whole entry A58E): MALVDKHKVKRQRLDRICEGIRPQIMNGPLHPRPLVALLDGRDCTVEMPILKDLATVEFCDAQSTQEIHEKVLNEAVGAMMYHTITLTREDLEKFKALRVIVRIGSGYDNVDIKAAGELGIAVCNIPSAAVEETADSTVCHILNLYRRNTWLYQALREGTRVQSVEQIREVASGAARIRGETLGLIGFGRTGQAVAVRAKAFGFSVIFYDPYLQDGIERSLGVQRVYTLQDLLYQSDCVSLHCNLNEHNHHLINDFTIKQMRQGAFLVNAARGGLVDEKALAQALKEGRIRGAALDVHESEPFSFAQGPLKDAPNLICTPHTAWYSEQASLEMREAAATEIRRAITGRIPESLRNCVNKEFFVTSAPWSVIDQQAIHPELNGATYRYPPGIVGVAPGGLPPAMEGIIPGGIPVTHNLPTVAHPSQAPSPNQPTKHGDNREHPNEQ
Sequence of C-terminal-binding protein 2 (Mus musculus), P56546 V72R (P56546 whole entry V72R): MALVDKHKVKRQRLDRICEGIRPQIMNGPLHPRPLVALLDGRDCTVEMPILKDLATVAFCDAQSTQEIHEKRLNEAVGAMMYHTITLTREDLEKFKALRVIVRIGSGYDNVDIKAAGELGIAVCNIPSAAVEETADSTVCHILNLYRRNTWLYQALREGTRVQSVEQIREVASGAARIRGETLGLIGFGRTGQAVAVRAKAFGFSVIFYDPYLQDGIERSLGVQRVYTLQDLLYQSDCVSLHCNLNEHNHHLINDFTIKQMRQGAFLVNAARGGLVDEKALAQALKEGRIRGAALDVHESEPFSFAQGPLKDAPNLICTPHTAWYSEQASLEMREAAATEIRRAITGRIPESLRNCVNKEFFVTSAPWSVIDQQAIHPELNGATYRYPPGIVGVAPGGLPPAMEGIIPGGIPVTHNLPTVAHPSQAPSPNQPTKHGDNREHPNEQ

**Q.** Which “effect of a mutation on the interaction” value does the source give for “C-terminal-binding protein 2 (Mus musculus), P56546 A58E” here?
**A.** disrupting interaction

**Q.** For “C-terminal-binding protein 2 (Mus musculus), P56546 V72R”, which “effect of a mutation on the interaction” value is on record?
**A.** disrupting interaction
